The record followed here is US7557190.

For the assay, the target named is T1, Ep-CAM/Fc (recombinant human) (human, UniProt P16422).
T1 chain: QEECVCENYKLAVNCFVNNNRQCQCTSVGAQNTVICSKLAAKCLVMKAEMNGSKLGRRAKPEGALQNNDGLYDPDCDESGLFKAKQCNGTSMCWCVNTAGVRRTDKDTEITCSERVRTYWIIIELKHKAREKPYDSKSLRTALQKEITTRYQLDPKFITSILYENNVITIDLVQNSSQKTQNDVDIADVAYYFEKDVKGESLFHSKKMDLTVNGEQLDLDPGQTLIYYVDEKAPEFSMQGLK
Put plainly: SPR. A general note: In SPR one partner is held on a chip, and binding of the other changes the refractive index at the surface.

B1: H3.77/L3 (humanized 17-1A) (antibody, V domains shown)
VH: EVQLVESGGGLVQPGGSLRLSCAASGYSFTNYLIEWVRQAPGQGLEWMGVINPGSGGTNYNPSLKSRVTISADKSISTAYMELSSLRSEDTAVYFCARDGPWFAYWGQGTLVTVSS
VL: NIVMTQSPDSLAVSLGERATLSCRASENVVTYVSWYQQKPGQSPQLLIYGASNRYTGVPDRFTGSGSATDFTLTINSLEAEDAATYYCGQGYSYPYTFGGGTKLEIK
By Kd is commonly meant the free concentration of one partner at which half of the binding sites on the other are occupied at equilibrium, for simple one-to-one binding. With B1, the Kd turned out to be 64.9 nM.
